In US11421026B2, “Antibodies that bind human cannabinoid 1 (CB1) receptor” (BIRD ROCK BIO, Inc., priority 2015, dated 2022):

B1: PA13R3-P1C4: phage-derived chimeric anti-CB1 IgG; HC variable SEQ ID NO: 2, LC variable SEQ ID NO: 6 (antibody, V domains shown)
VH: EVQLQQSGAELVRPGVSVKISCKASGYEFSYYWMNWVKQRPGQGLEWIGQIYPGDGETKYNGKFKGKATLTADKSSNTAYMQLSSLTSEDSAVYFCARSHGNYLPYWGQGTLVTVSA
VL: DIVLTQSPAIMSASLGERVTMTCTASSSVSSSYLHWYQQKPGSSPKLWIYSTSNLASGVPARFSGSGSGTSYSLTISSMEAEDAATYYCHQYHRSPPTFGAGTKLELK
modifications: PA13R3-P1C4 Heavy chain variable region; PA13R3-P1C4 Light chain variable region
B2: PA13R3-P1C4 Fab: Fab fragment of chimeric PA13R3-P1C4 (antibody, V domains shown)
VH: EVQLQQSGAELVRPGVSVKISCKASGYEFSYYWMNWVKQRPGQGLEWIGQIYPGDGETKYNGKFKGKATLTADKSSNTAYMQLSSLTSEDSAVYFCARSHGNYLPYWGQGTLVTVSA
VL: DIVLTQSPAIMSASLGERVTMTCTASSSVSSSYLHWYQQKPGSSPKLWIYSTSNLASGVPARFSGSGSGTSYSLTISSMEAEDAATYYCHQYHRSPPTFGAGTKLELK
B3: 36E12B6C2: hybridoma-derived anti-CB1 mAb; HC variable SEQ ID NO: 18, LC variable SEQ ID NO: 22 (antibody, listed as Mus sp., V domains shown)
VH: QVQLQQSGAELVRPGSSVKISCKASGYEFSYYWMNWVKQRPGQGLQWIGQIYPGDGDTNYNGKFKGKATLTADKSSSTAYMHLTSLTSEDSAVYFCARSGGNPFAFWGQGTLVTVSA
VL: DIQMTQTSSSLSASLGDRVTFSCRASQDISNYLNWYQQKPDGTVKLLIYYTSRLHSGVTSRFRGSGSGTDYSLTISNLEQEDVATYFCQQGHTLPWSFGGGTKLEIK

Experiments:
[1] = target: T1, CB1 (TRex-CHO cells stably expressing human CB1) (Homo sapiens, UniProt P21554); format: cell-based
T1 construct: pcDNA4/TO native full length human CB1 receptor construct was transfected into tetracycline inducible system Trex-CHO and Trex-293 cells; expressed in transfected cells
Protocol: A cAMP functional assay was performed to measure the antagonism of the antibodies. […] Data analysis was performed using GraphPad Prism.
Cell numbers, forskolin concentration and CP55,940 concentration were optimized according to the manufacturer's instructions. The cAMP antagonist functional assay was performed in white 384-well low volume plates (Greiner). […] Data analysis was performed using GraphPad Prism.
Data analysis was performed using GraphPad Prism. The mean±SD of IC50s and dissociation constants (Kd) shown were measured from at least 2 different experiments.
After 30 minutes incubation at 22° C., 5 μL cAMP-d2 and 5 μL anti-cAMP cryptate were added to the cells and incubated for 1 hour. […] Data analysis was performed using GraphPad Prism.

[2] = target: T2, CB1 surface expression (CB1 TRex-CHO / TRex-293 cells) (Homo sapiens, UniProt P21554); format: cell-based; settings: tetracycline induced, humanized variants
T2 construct: pcDNA4/TO native full length human CB1 receptor construct was transfected into tetracycline inducible system Trex-CHO and Trex-293 cells; expressed in transfected cells; tetracycline induced

[3] = test system: CB1 receptor signaling, WIN55,212 induced ERK phosphorylation in Trex-CHO CB1 receptor cells; test: ERK activation assay (western blot); format: cell-based, human; settings: IgG 300 nM; WIN55,212 100 nM, 10 and 15 minutes
Protocol: (§1) Two days before the experiment, Trex-CHO CB1 receptor cells were seeded at 500,000 cells/well into 6-well plates. 1 μg/mL tetracycline was used to induce CB1 receptor expression after 24 hours. Cells were serum starved for at least two hours before the experiment. […] Cell lysates were harvested and the level of ERK activation was determined by western blot. Anti-ERK and Anti-phospho-specific ERK antibodies were obtained from Cell Signaling Inc.
as §1, with “Trex-CHO CB1 receptor-expressing cells were” for “Trex-CHO CB1 receptor cells were”

[4] = target: T3, human CB1 expressing TRex-CHO cells (Homo sapiens, UniProt P21554); format: cell-based; settings: forskolin stimulated TRex-CHO CB1 cells
T3 construct: pcDNA4/TO native full length human CB1 receptor construct was transfected into tetracycline inducible system Trex-CHO and Trex-293 cells; expressed in transfected cells
Protocol: Data analysis was performed using GraphPad Prism software.
Data analysis was performed using GraphPad Prism.

[5] = test system: denatured CB1 protein (His tagged, N/C-termini truncated human CB1); test: Western blot recognition of denatured CB1 protein; format: binding; settings: 2 μg/mL
Protocol: A study was performed to examine whether PA13R3-P1C4 and its humanized variant antibodies recognize epitope(s) on denatured CB1 protein (His tagged, N/C-termini truncated CB1) by western blot analysis. Purified human CB1 protein (750 ng per lane) was mixed with SDS reducing buffer containing beta-mercaptoethanol (Double Helix). […] Membranes were blocked with 5% NFDM/PBS-T for one hour at 22° C. followed by immune-blotting with test antibodies (2 μg/mL) in 5% NFDM/PBS-T overnight at 4° C. Commercial mouse anti-His antibody and mouse anti-CB1 antibody (R&D Systems) were used as positive controls, and rabbit anti-CB1 antibody (Cayman), which recognizes a C-terminal region that was deleted from the recombinant CB1 protein used in this study, served as a negative control.
After overnight incubation, membranes were washed with 0.5% Tween-20 PBS (PBS-T) three times at 22° C. Secondary antibodies AP-conjugated anti-human IgG (1:5000) or anti-mouse IgG or anti-rabbit IgG in 5% NFDM/PBS-T were added to respective membranes and incubated for 1 hour at 22° C. Membranes were washed three times with PBS-T each for 5 minutes. After the final wash, signal was developed by incubating with NBT/BCIP substrate solution at 22° C. and the reaction was stopped by washing the membrane under running water.

[6] = target: CB1 receptor (TRex-CHO CB1 cells) (Homo sapiens, UniProt P21554); test: Flow cytometry binding of P1C4 Fab
Protocol: To determine PA13R3-P1C4 Fab binding affinity, full binding curves were generated on CB1 receptor by testing a range of concentrations using TRex-CHO cells stably transfected with tetracycline inducible CB1 expression construct by flow cytometry. Three-fold serial dilutions from 3 μM to 0.1 μM were prepared. FITC-conjugated anti-human antibody was used to detect PA13R3-P1C4 Fab.

T3 sequence (P21554 whole entry): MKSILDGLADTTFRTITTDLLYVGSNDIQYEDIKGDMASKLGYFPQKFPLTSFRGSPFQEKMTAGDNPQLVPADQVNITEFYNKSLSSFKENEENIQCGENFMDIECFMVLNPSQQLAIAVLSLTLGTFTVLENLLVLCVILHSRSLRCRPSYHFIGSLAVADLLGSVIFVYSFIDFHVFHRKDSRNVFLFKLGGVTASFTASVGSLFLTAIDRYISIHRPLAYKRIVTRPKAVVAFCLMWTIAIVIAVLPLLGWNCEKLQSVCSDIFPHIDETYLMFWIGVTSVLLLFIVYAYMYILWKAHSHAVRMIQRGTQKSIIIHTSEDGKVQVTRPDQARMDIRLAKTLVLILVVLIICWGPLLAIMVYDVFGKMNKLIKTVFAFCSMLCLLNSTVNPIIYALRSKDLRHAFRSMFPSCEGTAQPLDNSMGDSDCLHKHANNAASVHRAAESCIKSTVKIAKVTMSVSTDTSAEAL
T1 sequence (P21554 whole entry): as above
T2 sequence (P21554 whole entry): as above
Sequence of CB1 receptor (TRex-CHO CB1 cells) (P21554 whole entry): as above

| Molecule | effect on CP55,940-induced reduction in intracellular cAMP levels [1] | IC50 ([1]; all batches, 5 μM forskolin, 9 nM CP55,940, read-out: cAMP IC50 Mean ± SD) | inhibition of WIN55,212 induced CB1 receptor internalization [2] | block of WIN55,212 induced ERK phosphorylation [3] | effect on cAMP levels without exogenous agonist / mechanism [4] | recognition of denatured CB1 protein [5] | binding to TRex-CHO CB1 cells [6] |
| --- | --- | --- | --- | --- | --- | --- | --- |
| B1 | dose-dependently inhibited | 138 ± 21 nM | inhibited | blocked | inverse agonists | could not recognize denatured and linearized CB1 protein | – |
| B2 | – | – | – | – | – | – | dose dependently bound |
| B3 | – | – | – | blocked | inverse agonists | – | – |
